{"source": "paper PMC3872242", "about": "(Journal of molecular biology, 2013)", "target": "T1, Human 14-3-3γ (human, UniProt P61981 2-247)", "T1 sequence": "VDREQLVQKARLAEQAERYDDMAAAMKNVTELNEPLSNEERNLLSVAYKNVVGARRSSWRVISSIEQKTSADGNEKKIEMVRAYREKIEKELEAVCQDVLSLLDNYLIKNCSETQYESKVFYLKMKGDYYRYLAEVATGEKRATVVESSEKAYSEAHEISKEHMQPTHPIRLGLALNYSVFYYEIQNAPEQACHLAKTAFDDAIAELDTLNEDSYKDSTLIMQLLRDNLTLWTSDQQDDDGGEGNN", "experiment": "crystal structure", "note": "Square brackets hold non-standard residues; d marks the D form. Ends that are not written are not given here. pS = N[C@@H](COP(=O)(O)O)C(=O)O"}
{"binder": "MPTPDATTPQAKGFRRAV[pS]ELDAKQAEAIMSPRFIGRRQSLIE", "note": "[THp-(1-43), Ser19-phosphorylated N-terminal peptide of human tyrosine hydroxylase]", "values": [{"measurement": "binding result", "value": "binds"}]}
